We go through 2 molecules from patent publication CN116535503A (KANGYUAN BOCHUANG BIOLOGICAL TECH BEIJING CO LTD, dated 2023).

Test [1] concerns the target T1, GDF15-HIS(百普赛斯，CAT#:GD5-H5149) (human, UniProt Q99988 197-308).
T1 sequence (looked up): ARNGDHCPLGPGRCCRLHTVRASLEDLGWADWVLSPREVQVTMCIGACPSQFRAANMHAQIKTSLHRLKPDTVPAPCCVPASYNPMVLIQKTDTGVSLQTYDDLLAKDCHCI
Kind of test: cell-based or functional assay.

For the next test, the target named is T2, GDF1(R&D，6937-GD-010) (UniProt P27539 254-372).
T2 sequence (looked up): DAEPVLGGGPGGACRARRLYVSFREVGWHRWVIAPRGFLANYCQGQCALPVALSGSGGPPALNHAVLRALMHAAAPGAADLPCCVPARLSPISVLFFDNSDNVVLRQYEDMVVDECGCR
Kind of test: ELISA, GDF1 coated at 1 μg/ml, HRP-anti-human IgG. A general note: In an ELISA, binding on a coated surface is turned into a signal by an enzyme label.

The target of a further test is T3, GDF3(R&D，5754-G3-010) (UniProt Q9NR23 251-364).
T3 sequence (looked up): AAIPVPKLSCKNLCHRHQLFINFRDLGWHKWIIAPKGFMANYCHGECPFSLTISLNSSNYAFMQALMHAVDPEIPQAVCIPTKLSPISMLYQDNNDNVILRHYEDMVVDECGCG
Kind of test: ELISA, GDF3 coated at 1 μg/ml, HRP-anti-human IgG.

B1: AV380-hIgG1 (antibody)
heavy: not shown
light: DIQMTQSPASLSASVGETVTITCRTSENLHNYLAWYQQKQGKSPQLLVYDAKTLADGVPSRFSGSGSGTQYSLKINSLQPEDFGSYYCQHFWSSPYTFGGGTKLEIKRTVAAPSVFIFPPSDEQLKSGTASVVCLLNNFYPREAKVQWKVDNALQSGNSQESVTEQDSKDSTYSLSSTLTLSKADYEKHKVYACEVTHQGLSSPVTKSFNRGEC
On to B1, for which, in test [1], the “Bottom (fold luciferase activity), HEK293 SRE-LUC2-cRET-GFRAL reporter cells” value came to 1.03 and the “IC50(μg/ml), luciferase in HEK293 SRE-LUC2-cRET-GFRAL reporter cells stimulated with 5 ng/ml GDF15-His” value was determined as 0.0447 µg/mL.

B2: 53E5(hz) (antibody, human IgG1, kappa, V domains shown)
VH: QVQLQESGPGLVKPSETLSLTCTFSGFSLSTSGMGVGWIRQPPGKGLEWLAHILWDDVKRYNPALKSRLTISKDSSKSQISLKLSSVTAADTAVYYCVQMAWDWFAYWGQGTTVTVSS
VL: DIQMTQSPSSLSASVGDRVTITCKASQNVDTNVAWYQQKPGQSPKALIYSASYRSSGVPSRFSGSGSGTDFTLTISSLQPEDFATYYCQQYHSYPTFGQGTRLEIKR
notes: also called 人源化抗体53E5(hz); 53E5人源化
As to B2, in test [1], the “Bottom (fold luciferase activity), HEK293 SRE-LUC2-cRET-GFRAL reporter cells” value was 1.1 and the “IC50(μg/ml), luciferase in HEK293 SRE-LUC2-cRET-GFRAL reporter cells stimulated with 5 ng/ml GDF15-His” value came to 0.0225 µg/mL. Further, the binding result with GDF1(R&D，6937-GD-010) is listed as “no binding (tested: 4μg/ml)”. Further, in the test with GDF3(R&D，5754-G3-010), the binding result is reported as “no binding (tested: 4μg/ml)”.
